In paper PMC3097263 one finds binding data, which are given here for one sequence.

This series deals with T1, MqsA N97A/R101A N97A;R101A (Escherichia coli K-12?) (UniProt Q46864).
T1 sequence: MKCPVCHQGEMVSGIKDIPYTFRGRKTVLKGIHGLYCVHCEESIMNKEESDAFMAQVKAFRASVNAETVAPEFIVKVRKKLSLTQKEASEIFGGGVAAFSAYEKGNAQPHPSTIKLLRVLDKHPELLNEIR
In words: EMSA. As to conditions: 20 min at room temperature, binding buffer.

In the case of “TGAACGTTGGTCAGACCTTGCAGGTGGGTAATGCTTCCGGTACGCCAATCACTGGCGGAAATGCCATTACCCAGGCCGACGCAGCAGAGCAAGGAGTTGTGATCAAGCCTGCACAAAATTCCACCGTTGCTGTTGCGTCGCAACCGACAATTACGTATTCTGAGTCTTCGGGTGAACAGAGTGCT (double strand) [PrpoS (Suppl. Fig. 3b probe)]”, the binding entry is “no binding”.
